Results taken from paper PMC2819690 (The Journal of Cell Biology, 2010).

Biological target: SNARE (H3) domain of syntaxin-1a (aa 180–262) (rat, UniProt P32851 180-262)
Experiment: assembly of purified monomers and anion-exchange chromatography

Sequence of SNARE (H3) domain of syntaxin-1a (aa 180–262) (P32851 180-262): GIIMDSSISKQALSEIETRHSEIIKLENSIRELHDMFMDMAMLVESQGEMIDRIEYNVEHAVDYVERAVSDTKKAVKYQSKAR

## NVDKVLERDQKLSELDDRADALQAGASQFETSAAKLKRKYWWKNLKMM (domain or fragment) [Syb49–96]
  binding result: binds
